From paper PMC2987719

Columns and labels:
Conditions in all cases: remark: other sources report otherwise
[1] = target: myc-LRRK2 (human wild-type full-length leucine rich repeat kinase 2, myc-tagged) (human) (UniProt Q5S007); assay: glycerol velocity gradient
[2] = target: myc-LRRK2 (human wild-type full-length leucine rich repeat kinase 2, myc-tagged) (human) (UniProt Q5S007); assay: SEC
[3] = target: myc-LRRK2 (human wild-type full-length leucine rich repeat kinase 2, myc-tagged) (human) (UniProt Q5S007); assay: native gel or EMSA

Measured: stoichiometry N

myc-LRRK2 (human wild-type full-length leucine rich repeat kinase 2, myc-tagged), Q5S007 1-2527
2: all assays above
